Publication doi:10.1101/2022.05.13.491857

Target: GST-Rac1^QP (UniProt P63000)
Assay: pull-down

Question: “WRC^Y967A (from UniProt Q7L576 1-1253; Q9Y2A7 1-1128; Q92558 1-230; Q9NYB9 1-158; Q8WUW1 1-75) (complex)” was tested. Which Kd did it give?
Answer: 2 µM
